According to patent US20220135700A1 (published 2022):
Where two headings read alike, the source gives them in different places.

B1: 9_29-(G4S)4-G3 (designed binder)
chain: MRGSHHHHHHGSDLGKKLLEAARAGQDDEVRILMANGADVNAHDFYGITPLHLAANFGHLEIVEVLLKHGADVNAFDYDNTPLHLAADAGHLEIVEVLLKYGADVNASDRDGHTPLHLAAREGHLEIVEVLLKNGADVNAQDKFGKTAFDISIDNGNEDLAEILQKLGGGGSGGGGSGGGGSGGGGSRSDLGKKLLEAARAGQDDEVRILMANGADVNAKDEYGLTPLYLATAHGHLEIVEVLLKNGADVNAVDAIGFTPLHLAAFIGHLEIAEVLLKHGADVNAQDKFGKTAFDISIGNGNEDLAEILQKLN
notes: also called 9_20_G
B2: 9_26-(G4S)4-G3 (designed binder)
chain: MRGSHHHHHHGSDLGKKLLEAARAGQDDEVRILMANGADVNAKDFYGITPLHLAAAYGHLEIVEVLLKHGADVNAHDWNGWTPLHLAAKYGHLEIVEVLLKHGADVNAIDNAGKTPLHLAAAHGHLEIVEVLLKYGADVNAQDKFGKTAFDISIDNGNEDLAEILQKLGGGGSGGGGSGGGGSGGGGSRSDLGKKLLEAARAGQDDEVRILMANGADVNAKDEYGLTPLYLATAHGHLEIVEVLLKNGADVNAVDAIGFTPLHLAAFIGHLEIAEVLLKHGADVNAQDKFGKTAFDISIGNGNEDLAEILQKLN
notes: also called 6_20_G
B3: DARPin 929 (designed binder)
chain: MRGSHHHHHHGSDLGKKLLEAARAGQDDEVRILMANGADVNAHDFYGITPLHLAANFGHLEIVEVLLKHGADVNAFDYDNTPLHLAADAGHLEIVEVLLKYGADVNASDRDGHTPLHLAAREGHLEIVEVLLKNGADVNAQDKFGKTAFDISIDNGNEDLAEILQKLN

Columns and labels:
[1] = target: T1, HER2 on the surface of HER2 overexpressing cancer cells (BT474) (human, UniProt P04626 23-1255); assay: flow cytometry, dissociation from BT474 cells in the presence of a competing DARPin (FIG. 18A)
T1 construct: whole, on cells; also called ErbB2; HER2/Neu
Protocol: Corresponding to 100 μl cell suspension, samples were washed twice in 1 ml PBS (0.2% NaN₃, 1% BSA) and centrifuged at 600 g for 30 sec at room temperature. Cells were resuspended in 1 ml PBS (0.2% NaN₃, 1% BSA) containing 100 nM of equivalent unlabeled binding agent. The dissociation reaction was incubated for the indicated times (15, 30, 60, 120, 180 and 240 min) at room temperature while continuously stirring in the dark. Dissociation was stopped by placing the cell pellets on ice. Each sample was washed once with 1 ml cold PBS.

[2] = target: T2, HER2 (form used in the assay not stated) (human, UniProt P04626 23-652, limits assumed); assay: method not stated
T2 construct: also called ErbB2

[3] = target: T2, HER2 (form used in the assay not stated); assay: method not stated; remark: listed apart in the source
[4] = target: T1, HER2 on the surface of HER2 …; assay: flow cytometry on BT474 cells, Alexa488-labelled agent

Binder	off-rate, times lower than monovalent G3 [1]	Kd [2]	Kd [3]	koff [3]	kon [3]	Kd [4]	koff [4]	kon [4]
B1	10 fold	–	–	–	–	–	–	–
B2	10 fold	–	–	–	–	–	–	–
B3	–	1 nM	3.8 nM	0.0008 s⁻¹	200000 M⁻¹ s⁻¹	33.5 nM	0.00221 s⁻¹	69000 M⁻¹ s⁻¹
